Assay results from patent US20200399381A1 (I MAB BIOPHARMA US, published 2020).

T1: recombinant His-tagged human IFNAR-1-ECD protein (human, UniProt P17181 28-436)
T1 construct: extracellular domain; the Biacore text says His-tagged human IFNAR-1-ECD; also called His-tagged IFNAR-1; hIFNAR-1 protein; not shown: His tag
T1 sequence (looked up): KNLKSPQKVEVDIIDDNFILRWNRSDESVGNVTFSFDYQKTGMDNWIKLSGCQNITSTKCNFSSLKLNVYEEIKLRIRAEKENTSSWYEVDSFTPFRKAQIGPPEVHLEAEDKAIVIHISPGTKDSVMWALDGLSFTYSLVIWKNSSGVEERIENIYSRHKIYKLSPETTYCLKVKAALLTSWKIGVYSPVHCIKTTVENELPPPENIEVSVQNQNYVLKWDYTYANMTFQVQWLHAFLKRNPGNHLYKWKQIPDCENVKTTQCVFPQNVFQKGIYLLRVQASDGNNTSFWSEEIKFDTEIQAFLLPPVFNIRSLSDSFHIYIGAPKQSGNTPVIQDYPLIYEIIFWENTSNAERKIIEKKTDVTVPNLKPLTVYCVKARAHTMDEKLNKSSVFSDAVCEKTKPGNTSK

T2: human IFNAR-1 on cells (human, UniProt P17181 28-557)
T2 sequence (looked up): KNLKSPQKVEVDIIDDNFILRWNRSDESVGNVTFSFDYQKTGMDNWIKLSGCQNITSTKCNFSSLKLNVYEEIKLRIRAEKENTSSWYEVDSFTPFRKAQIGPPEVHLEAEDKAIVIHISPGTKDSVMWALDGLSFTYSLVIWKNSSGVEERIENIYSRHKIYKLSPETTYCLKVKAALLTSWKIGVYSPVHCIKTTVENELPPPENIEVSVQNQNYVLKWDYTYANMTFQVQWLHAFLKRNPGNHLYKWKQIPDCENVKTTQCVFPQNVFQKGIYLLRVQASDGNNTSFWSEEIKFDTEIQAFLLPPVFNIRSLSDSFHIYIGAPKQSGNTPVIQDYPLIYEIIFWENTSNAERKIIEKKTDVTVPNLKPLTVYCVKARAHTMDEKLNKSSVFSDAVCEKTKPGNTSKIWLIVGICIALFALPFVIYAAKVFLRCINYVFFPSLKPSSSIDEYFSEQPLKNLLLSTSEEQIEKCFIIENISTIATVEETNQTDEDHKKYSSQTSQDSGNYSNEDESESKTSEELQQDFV

T3: human IFNAR-1 protein (form not stated) (human, UniProt P17181 28-436, limits assumed)
T3 construct: bispecific ELISA
T3 sequence (looked up): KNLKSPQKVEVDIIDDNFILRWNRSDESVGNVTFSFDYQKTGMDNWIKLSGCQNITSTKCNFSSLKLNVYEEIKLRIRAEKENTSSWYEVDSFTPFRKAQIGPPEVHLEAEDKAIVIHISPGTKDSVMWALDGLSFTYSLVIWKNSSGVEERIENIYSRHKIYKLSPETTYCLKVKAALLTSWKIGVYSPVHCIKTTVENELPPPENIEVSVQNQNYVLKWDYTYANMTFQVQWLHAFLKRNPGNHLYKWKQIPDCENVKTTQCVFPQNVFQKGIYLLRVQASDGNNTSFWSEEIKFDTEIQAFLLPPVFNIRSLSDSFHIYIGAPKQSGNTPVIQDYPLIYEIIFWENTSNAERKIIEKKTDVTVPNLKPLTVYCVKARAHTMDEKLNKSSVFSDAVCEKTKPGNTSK


Tests used:
[1] = target: T1, recombinant His-tagged human …; assay: ELISA, coated His-tagged IFNAR-1
Experimental: This example tested the binding properties of the anti-IFNAR-1 mouse antibodies to the human IFNAR-1 proteins by ELISA assay. In short, His-tagged IFNAR-1 was coated at 0.5 μg/ml overnight and then blocked by 5% BSA in PBS. Serial diluted anti-IFNAR-1 antibodies were incubated with the coated antigen for 1 h at room temperature. The resulting plates were washed with PBS/T and incubated with goat anti-mouse IgG-HRP for 1 h at room temperature. The plates were developed with TMB substrate and analyzed by spectrophotometer at OD 450-630 nm.

human IFNAR-1 on cells = target: T2, human IFNAR-1 on cells; assay: cell-based or functional assay
[2] = target: T3, human IFNAR-1 protein (form not stated); assay: affinity ranking of expressed humanized 8G11 IgGs (method not named)

Row | Binder | EC50 [1] | EC50 (nM), inhibition of IFNα2b-induced SEAP reporter in HEK-Blue IFNα/β cells (human IFNAR-1 on cells) | Kd [2] | koff [2] | kon [2]
1 | 260H8 (antibody, V domains shown, Hybridoma-derived monoclonal antibody) VH: EVQLQESGPGLAKPSQTLSLTCSVTGYSITSDYWNWIRKFPGNKLEYMGYISYSGSIYYNPSLKSRISITRDTSKNQYYLQLNSVTNEDTATYYCARSGGMYYFDYWGQGTTLTVSS VL: DIQMTQSPASLSASVGETVTITCRASGNIHNYLAWYQQKQGKSPQLLVYNAKTLEDGVPSRFSGSGSGTQYSLKINSLQPEDFGSYYCQHFWSIPPTFGSGTKLEIK | 0.055 nM | 5.07 nM | – | – | –
2 | 8G11 humanized VH1 + VL2 (antibody, V domains shown, Humanized IgG expressed in HEK293; also called VH1 + VL2 (8G11)) VH: QVQLVQSGAEVKKPGASVKVSCKASGFNIKDYYMHWVRQAPGQGLEWMGRIDPEDAETKYAPKFQGRVTMTRDTSTSTVYMELSSLRSEDTAVYYCARGGNFYVMDYWGQGTLVTVSS VL: DIQLTQSPSFLSTSVGDRVTITCKASQNVGTNVVWYQQKPGKSPKVLIYSASYRVSGVPSRFSGSGSGTEFTLIISSLQPEDFATYYCQQKNNYPYTFGQGTKLEIK | – | – | 0.765 nM | 0.000127 s⁻¹ | 167000 M⁻¹ s⁻¹
3 | 8G11 humanized VH1 + VL3 (antibody, V domains shown, Humanized IgG expressed in HEK293; also called VH1 + VL3 (8G11)) VH: QVQLVQSGAEVKKPGASVKVSCKASGFNIKDYYMHWVRQAPGQGLEWMGRIDPEDAETKYAPKFQGRVTMTRDTSTSTVYMELSSLRSEDTAVYYCARGGNFYVMDYWGQGTLVTVSS VL: DIQLTQSPSFLSTSVGDRVTITCKASQNVGTNVVWYQQKPGKSPKVLIYSASYRVSGVPSRFSGSGSGTEFTLIISSVQPEDFATYFCQQKNNYPYTFGQGTKLEIK | – | – | 0.865 nM | 0.0002 s⁻¹ | 231000 M⁻¹ s⁻¹
4 | 8G11 humanized VH2 + VL4 (antibody, V domains shown, Humanized IgG expressed in HEK293; also called VH2 + VL4 (8G11)) VH: QVQLVQSGAEVVKPGASVKVSCKGSGFNIKDYYMHWVRQAPGQGLEWIGRIDPEDAETKYAPKFQGRVTMTADTSTSTVYMELSSLRSEDTAVYYCARGGNFYVMDYWGQGTLVTVSS VL: DIQMTQSPSFLSTSVGDRVTVTCKASQNVGTNVVWYQQKPGKSPKVLIYSASYRVSGVPSRFSGSGSGTEFTLIISSVQPEDFATYFCQQKNNYPYTFGQGTKLEIK | – | – | 0.388 nM | 0.000102 s⁻¹ | 262000 M⁻¹ s⁻¹
5 | 8G11 humanized VH1 + VL4 (antibody, V domains shown, Humanized IgG expressed in HEK293; also called VH1 + VL4 (8G11)) VH: QVQLVQSGAEVKKPGASVKVSCKASGFNIKDYYMHWVRQAPGQGLEWMGRIDPEDAETKYAPKFQGRVTMTRDTSTSTVYMELSSLRSEDTAVYYCARGGNFYVMDYWGQGTLVTVSS VL: DIQMTQSPSFLSTSVGDRVTVTCKASQNVGTNVVWYQQKPGKSPKVLIYSASYRVSGVPSRFSGSGSGTEFTLIISSVQPEDFATYFCQQKNNYPYTFGQGTKLEIK | – | – | 0.836 nM | 0.000141 s⁻¹ | 169000 M⁻¹ s⁻¹
6 | 8G11 humanized VH3 + VL1 (antibody, V domains shown, Humanized IgG expressed in HEK293; also called VH3 + VL1 (8G11)) VH: QVQLVQSGAEVVKPGASVKVSCKGSGFNIKDYYMHWVKQAPGQGLEWIGRIDPEDAETKYAPKFQGRVTITADTSTSTVYLELSSLRSEDTAVYYCARGGNFYVMDYWGQGTLVTVSS VL: DIQLTQSPSFLSASVGDRVTITCKASQNVGTNVVWYQQKPGKAPKLLIYSASYRVSGVPSRFSGSGSGTEFTLTISSLQPEDFATYYCQQKNNYPYTFGQGTKLEIK | – | – | 0.413 nM | 0.000106 s⁻¹ | 256000 M⁻¹ s⁻¹
7 | 8G11 humanized VH2 + VL3 (antibody, V domains shown, Humanized IgG expressed in HEK293; also called VH2 + VL3 (8G11)) VH: QVQLVQSGAEVVKPGASVKVSCKGSGFNIKDYYMHWVRQAPGQGLEWIGRIDPEDAETKYAPKFQGRVTMTADTSTSTVYMELSSLRSEDTAVYYCARGGNFYVMDYWGQGTLVTVSS VL: DIQLTQSPSFLSTSVGDRVTITCKASQNVGTNVVWYQQKPGKSPKVLIYSASYRVSGVPSRFSGSGSGTEFTLIISSVQPEDFATYFCQQKNNYPYTFGQGTKLEIK | – | – | 0.364 nM | 9.65e-05 s⁻¹ | 265000 M⁻¹ s⁻¹

Next, values leading:

Row | EC50 [1] | EC50 (nM), inhibition of IFNα2b-induced SEAP reporter in HEK-Blue IFNα/β cells (human IFNAR-1 on cells) | Kd [2] | koff [2] | kon [2] | Binder
8 | 0.476 nM | 6.71 nM | – | – | – | 269A7 (antibody, V domains shown, Hybridoma-derived monoclonal antibody) VH: EVQLQESGPGLAKPSQTLSLTCSVTGYSITSDYWNWIRKFPGNKLEYMGYISYSGTIYYNPSLKSRISITRDTSKNQYYLQLNSVTNEDTATYYCARSGGMYYFDYWGQGTTLTVSS VL: DIQMTQSPASLSASVGETVTITCRASGNIHNYLAWYQQKQGKSPQLLVYNAKTLEDGVPSRFSGSGSGTQYSLKINSLQPEDFGSYYCQHFWSIPPTFGSGTKLEIK
9 | 0.088 nM | 3.87 nM | – | – | – | 268E9 (antibody, V domains shown, Hybridoma-derived monoclonal antibody) VH: EVQLQESGPGLAKPSQTLSLTCSVTGYSITSDYWNWIRKFPGNKLEYMGYISYSGSIYYNPSLKSRISITRATSKNQYYLQLNSVTNEDTATYYCARSGGMYYFDYWGQGTTLTVSS VL: DIQMTQSPASLSASVGETVTITCRASGNIHNYLAWYQQKQGKSPQLLVYNAKTLEDGVPSRFSGSGSGTQYSLKINSLQPEDFGSYYCQHFWSIPPTFGSGTKLEIK
10 | 0.097 nM | 1.28 nM | – | – | – | 293H10 (antibody, V domains shown, Hybridoma-derived monoclonal antibody) VH: EVQLQESGPGLAKPSQTLSLTCSVTGYSITSDYWNWIRKFPGNKLEYMGYISYSGNTDYNPSLKSRFSITRDTSKNQFYLQLNSVTTEDTATYYCARSEGMYFFDYWGQGTTLTVSS VL: DIQMTQSPASLSASVGETVSITCRASGNIHNYLAWYHQKQGKSPQLLVYNAKTLADGVPSRFSGSGSGTQYSLKINSLQPEDFGSYYCQHFWSTPPTFGSGTKLEIK
11 | – | – | 0.401 nM | 0.000113 s⁻¹ | 281000 M⁻¹ s⁻¹ | 8G11 humanized VH3 + VL4 (antibody, V domains shown, Humanized IgG expressed in HEK293; also called VH3 + VL4 (8G11)) VH: QVQLVQSGAEVVKPGASVKVSCKGSGFNIKDYYMHWVKQAPGQGLEWIGRIDPEDAETKYAPKFQGRVTITADTSTSTVYLELSSLRSEDTAVYYCARGGNFYVMDYWGQGTLVTVSS VL: DIQMTQSPSFLSTSVGDRVTVTCKASQNVGTNVVWYQQKPGKSPKVLIYSASYRVSGVPSRFSGSGSGTEFTLIISSVQPEDFATYFCQQKNNYPYTFGQGTKLEIK
12 | – | – | 0.332 nM | 9.69e-05 s⁻¹ | 292000 M⁻¹ s⁻¹ | 8G11 humanized VH4 + VL2 (antibody, V domains shown, Humanized IgG expressed in HEK293; also called VH4 + VL2 (8G11)) VH: QVQLVQSGAEVVKPGASVKLSCKGSGFNIKDYYMHWVKQAPGQGLEWIGRIDPEDAETKYAPKFQGRATITADTSTSTAYLELSSLRSEDTAVYYCARGGNFYVMDYWGQGTLVTVSS VL: DIQLTQSPSFLSTSVGDRVTITCKASQNVGTNVVWYQQKPGKSPKVLIYSASYRVSGVPSRFSGSGSGTEFTLIISSLQPEDFATYYCQQKNNYPYTFGQGTKLEIK
13 | – | – | 0.389 nM | 0.000111 s⁻¹ | 284000 M⁻¹ s⁻¹ | 8G11 humanized VH3 + VL2 (antibody, V domains shown, Humanized IgG expressed in HEK293; also called VH3 + VL2 (8G11)) VH: QVQLVQSGAEVVKPGASVKVSCKGSGFNIKDYYMHWVKQAPGQGLEWIGRIDPEDAETKYAPKFQGRVTITADTSTSTVYLELSSLRSEDTAVYYCARGGNFYVMDYWGQGTLVTVSS VL: DIQLTQSPSFLSTSVGDRVTITCKASQNVGTNVVWYQQKPGKSPKVLIYSASYRVSGVPSRFSGSGSGTEFTLIISSLQPEDFATYYCQQKNNYPYTFGQGTKLEIK
14 | – | – | 0.372 nM | 0.000105 s⁻¹ | 283000 M⁻¹ s⁻¹ | 8G11 humanized VH4 + VL4 (antibody, V domains shown, Humanized IgG expressed in HEK293; also called VH4 + VL4 (8G11)) VH: QVQLVQSGAEVVKPGASVKLSCKGSGFNIKDYYMHWVKQAPGQGLEWIGRIDPEDAETKYAPKFQGRATITADTSTSTAYLELSSLRSEDTAVYYCARGGNFYVMDYWGQGTLVTVSS VL: DIQMTQSPSFLSTSVGDRVTVTCKASQNVGTNVVWYQQKPGKSPKVLIYSASYRVSGVPSRFSGSGSGTEFTLIISSVQPEDFATYFCQQKNNYPYTFGQGTKLEIK
15 | – | – | 0.489 nM | 9.94e-05 s⁻¹ | 203000 M⁻¹ s⁻¹ | 8G11 humanized VH4 + VL1 (antibody, V domains shown, Humanized IgG expressed in HEK293; also called VH4 + VL1 (8G11)) VH: QVQLVQSGAEVVKPGASVKLSCKGSGFNIKDYYMHWVKQAPGQGLEWIGRIDPEDAETKYAPKFQGRATITADTSTSTAYLELSSLRSEDTAVYYCARGGNFYVMDYWGQGTLVTVSS VL: DIQLTQSPSFLSASVGDRVTITCKASQNVGTNVVWYQQKPGKAPKLLIYSASYRVSGVPSRFSGSGSGTEFTLTISSLQPEDFATYYCQQKNNYPYTFGQGTKLEIK
